The source of these data is article PMC6646387, “Identification of intracellular cavin target proteins reveals cavin-PP1alpha interactions regulate apoptosis” (Nature Communications, 2019).

The test addresses T1, GFP-PP1α (UniProt P62136 1-330).
T1 construct: serine/threonine-protein phosphatase PP1alpha catalytic subunit (PP1α); construct provided by the Trinkle-Mulcahy Laboratory; printed both as GFP-PP1α and PP1α-GFP; also called PP1α-GFP; PP1alpha-GFP; source: MCF-7 or A431, transfected, in lysate
The test is described as follows: single-molecule coincidence detection; PNS fraction of MCF-7 cells cotransfected with GFP-PP1α and Cherry-Cavin1 or Cherry-Cavin3, in PBS, diluted to about 1 nM; two-colour confocal detection; C = mCherry/(GFP+mCherry); oligomeric state from burst brightness. The settings on record: partners not purified.

As a reminder, the stoichiometry N is the number of molecules, sites or subunits per partner or assembly.

T1 sequence (P62136 whole entry): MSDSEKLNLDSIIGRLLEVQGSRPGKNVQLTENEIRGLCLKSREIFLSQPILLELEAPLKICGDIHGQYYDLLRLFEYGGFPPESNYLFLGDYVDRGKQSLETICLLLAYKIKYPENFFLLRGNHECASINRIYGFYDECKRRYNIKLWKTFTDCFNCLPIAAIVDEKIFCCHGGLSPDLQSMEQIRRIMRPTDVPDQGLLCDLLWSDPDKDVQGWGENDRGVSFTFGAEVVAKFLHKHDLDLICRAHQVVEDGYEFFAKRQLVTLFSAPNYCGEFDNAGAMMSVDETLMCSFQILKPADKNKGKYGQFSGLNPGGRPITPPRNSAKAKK

B1: mCherry-Cavin3 (natural protein, mouse, UniProt Q91VJ2 1-260, looked up)
chain: MGESALEPGPVPETPAGGPVHAVTVVTLLEKLATMLEALRERQGGLAERQGGLAGSVRRIQSGLGALSRSHDTTSNTLTQLLAKAERVGSHADAAQERAVRRAAQVQRLEANHGLLVARGKLHVLLFKEETEIPARAFQKVPELLGPEDQLVLGPDQPEDEVGESSEEEPVESRAQRLRRTGLQKVQSLKRALSSRKAAQPTPVKPPRVGPVRSSEGPSEGQPAAQPEMESELETALEPEPPQPTKEDPEKPVLQIESAA
notes: Murine Cavin-3 (PRKCDBP), amplified from NIH-3T3 fibroblast cDNA, in an mCherry vector; also called mCherry-tagged Cavin3; source: MCF-7, transfected, in lysate (cytosolic or PNS fraction)
As to B1, the coincidence ratio came to 0.5 and the “stoichiometry N” value is 1.

B2: mCherry-Cavin1 (natural protein, mouse, UniProt O54724 1-392, looked up)
chain: MEDVTLHIVERPYSGFPDASSEGPEPTQGEARATEEPSGTGSDELIKSDQVNGVLVLSLLDKIIGAVDQIQLTQAQLEERQAEMEGAVQSIQGELSKLGKAHATTSNTVSKLLEKVRKVSVNVKTVRGSLERQAGQIKKLEVNEAELLRRRNFKVMIYQDEVKLPAKLSVSKSLKESEALPEKEGDELGEGERPEDDTAAIELSSDEAVEVEEVIEESRAERIKRSGLRRVDDFKKAFSKEKMEKTKVRTRENLEKTRLKTKENLEKTRHTLEKRMNKLGTRLVPVERREKLKTSRDKLRKSFTPDHVVYARSKTAVYKVPPFTFHVKKIREGEVEVLKATEMVEVGPEDDEVGAERGEATDLLRGSSPDVHTLLEITEESDAVLVDKSDSD
notes: Murine Cavin-1 (PTRF, caveolae-associated protein 1); oligomeric in MCF-7 cells by burst brightness; also called mCherry-tagged Cavin1; source: MCF-7, transfected, in lysate (cytosolic or PNS fraction)
Turning to B2, the coincidence ratio is 0.7.
